Source: patent US20240101665A1

Key:
[1] = target: human G Protein coupled receptor 48 (GPR48), endogenous, in colorectal cancer cells, tissues and organoids (human) (UniProt Q9BXB1); assay: cell-based or functional assay
[2] = target: human G Protein coupled receptor 48 (GPR48), endogenous, in colorectal cancer cells, tissues and organoids (human) (UniProt Q9BXB1); assay: flow cytometry on P6C cells, dilution series of antibody, FITC goat anti-mouse IgG
[3] = target: human G Protein coupled receptor 48 (GPR48), endogenous, in colorectal cancer cells, tissues and organoids (human) (UniProt Q9BXB1); assay: western blot on P6C lysate, dilution series of antibody

Commercial GPR48 monoclonal antibody, R&D Systems, clone #852229, product number MAB7750
inhibition rate, colony formation of HCT116 cells, 10 µg/ml antibody [1]: 15.4%
inhibition rate, colony formation of P6C cells, 10 µg/ml antibody [1]: 9.7%
inhibition rate, colony formation of SW480 cells, 10 µg/ml antibody [1]: 26.1%
dilution factor (dilution factor) [2]: 100
titer (reciprocal dilution (1:x) of 1 mg/ml) [3]: 300
